Data reported in the RNAGym collection of RNA variant scans (doi:10.7554/elife.80360).

B1: Hairpin Ribozyme (parent)
chain: GUCCUCUUUCACGUGCGCGUGAAAGAGAGAAGUGAACCAGAGAAACACACGUUGUGGUAUAUUACCUGGUA

Variants of: B1
Assay: self-cleavage, relative activity (ratio to wild type); higher = more cleavage; co-transcriptional

With A43U C65U as the variant, how does the self-cleavage read?
Its self-cleavage is 0.144.

With C4G G32C as the variant, how does the self-cleavage read?
The self-cleavage was 0.115.

Which self-cleavage does the source give for C10A A49C here?
Its self-cleavage is 0.223.

With U2A A47C as the variant, how does the self-cleavage read?
The self-cleavage was 0.183.

Which self-cleavage does the source give for G56U A64C here?
The self-cleavage was 0.177.

With A31C U67C as the variant, how does the self-cleavage read?
Its self-cleavage is 0.0604.

With G34C A49U as the variant, how does the self-cleavage read?
Its self-cleavage is 0.743.

For G29U A71U, which self-cleavage is on record?
Its self-cleavage is 0.185.

With C38A U62C as the variant, how does the self-cleavage read?
The self-cleavage was 0.0746.

Which self-cleavage does the source give for G15U A35C here?
Its self-cleavage is 1.16.

With G15U U20A as the variant, how does the self-cleavage read?
Its self-cleavage is 0.941.

Which self-cleavage does the source give for G21C C65G here?
Its self-cleavage is 0.249.

With G13U U67A as the variant, how does the self-cleavage read?
The self-cleavage was 0.257.

For G21U G32C, which self-cleavage is on record?
Its self-cleavage is 0.145.

With G29C G34A as the variant, how does the self-cleavage read?
Its self-cleavage is 0.158.

Which self-cleavage does the source give for G27C G54A here?
The self-cleavage was 0.133.

Which self-cleavage does the source give for U8A here?
The self-cleavage was 0.745.

Which self-cleavage does the source give for C16A A49U here?
The self-cleavage was 0.206.

For U20A G68C, which self-cleavage is on record?
Its self-cleavage is 0.112.

With U5G A28G as the variant, how does the self-cleavage read?
The self-cleavage was 0.669.

For A43G A61U, which self-cleavage is on record?
Its self-cleavage is 0.169.

For A36U G56U, which self-cleavage is on record?
The self-cleavage was 0.21.

With U2G A47C as the variant, how does the self-cleavage read?
Its self-cleavage is 0.358.

For A45C C66G, which self-cleavage is on record?
Its self-cleavage is 0.319.

Which self-cleavage does the source give for U9G A36C here?
Its self-cleavage is 0.381.

For U2A A36U, which self-cleavage is on record?
The self-cleavage was 0.144.

For A59U U63A, which self-cleavage is on record?
Its self-cleavage is 0.206.

For A11G C65U, which self-cleavage is on record?
The self-cleavage was 0.227.

With G27A U58A as the variant, how does the self-cleavage read?
Its self-cleavage is 0.176.

For U2G U58A, which self-cleavage is on record?
The self-cleavage was 0.263.

Which self-cleavage does the source give for G21C C50A here?
The self-cleavage was 0.386.

With U7G A71U as the variant, how does the self-cleavage read?
Its self-cleavage is 0.746.

For G17C G27C, which self-cleavage is on record?
The self-cleavage was 0.154.

With A31C as the variant, how does the self-cleavage read?
Its self-cleavage is 0.131.

For A31G, which self-cleavage is on record?
Its self-cleavage is 0.729.

Which self-cleavage does the source give for C18U A71U here?
The self-cleavage was 0.832.

With U9G A61G as the variant, how does the self-cleavage read?
Its self-cleavage is 0.257.

Which self-cleavage does the source give for A35G A59C here?
The self-cleavage was 0.104.

For A35G A61U, which self-cleavage is on record?
The self-cleavage was 0.245.

With C6A A59G as the variant, how does the self-cleavage read?
The self-cleavage was 0.178.

With G13U G25U as the variant, how does the self-cleavage read?
The self-cleavage was 0.527.

For A28C G54U, which self-cleavage is on record?
The self-cleavage was 0.262.

Which self-cleavage does the source give for C12G A24U here?
Its self-cleavage is 0.669.

With U55A U70C as the variant, how does the self-cleavage read?
The self-cleavage was 0.311.

For G34A G40A, which self-cleavage is on record?
Its self-cleavage is 0.407.

With U33A U60C as the variant, how does the self-cleavage read?
The self-cleavage was 0.263.

For G56U U62A, which self-cleavage is on record?
Its self-cleavage is 0.186.

For U58A C66G, which self-cleavage is on record?
Its self-cleavage is 0.165.

With U20C U60G as the variant, how does the self-cleavage read?
Its self-cleavage is 0.534.

Which self-cleavage does the source give for C4G A26U here?
Its self-cleavage is 0.204.

With C16U G51A as the variant, how does the self-cleavage read?
The self-cleavage was 1.06.

For A45U C65U, which self-cleavage is on record?
The self-cleavage was 0.175.

Which self-cleavage does the source give for A36U U70G here?
The self-cleavage was 0.665.

Which self-cleavage does the source give for U5G G56A here?
Its self-cleavage is 0.0193.

With G56C C66U as the variant, how does the self-cleavage read?
The self-cleavage was 0.199.

Which self-cleavage does the source give for U2A A44C here?
Its self-cleavage is 0.0634.

For A28G G34U, which self-cleavage is on record?
The self-cleavage was 1.65.

Which self-cleavage does the source give for A39G C46U here?
The self-cleavage was 0.119.

With A23G A64G as the variant, how does the self-cleavage read?
Its self-cleavage is 0.43.

For C18A G54U, which self-cleavage is on record?
Its self-cleavage is 0.62.

With A28G C46G as the variant, how does the self-cleavage read?
The self-cleavage was 0.134.

Which self-cleavage does the source give for G15C U60C here?
The self-cleavage was 1.25.

For G19C U33A, which self-cleavage is on record?
The self-cleavage was 0.125.

With U2A U53G as the variant, how does the self-cleavage read?
Its self-cleavage is 0.134.

With G27C G56C as the variant, how does the self-cleavage read?
Its self-cleavage is 0.134.

With G17C A43G as the variant, how does the self-cleavage read?
Its self-cleavage is 0.131.

Which self-cleavage does the source give for G40A G57U here?
Its self-cleavage is 0.0976.

With A22G A23G as the variant, how does the self-cleavage read?
The self-cleavage was 0.945.

Which self-cleavage does the source give for A35C C37G here?
The self-cleavage was 0.282.

With A23C U60C as the variant, how does the self-cleavage read?
The self-cleavage was 0.921.

For U2G U20C, which self-cleavage is on record?
Its self-cleavage is 0.385.

For C10U U33A, which self-cleavage is on record?
The self-cleavage was 0.169.

Which self-cleavage does the source give for A64U G69U here?
The self-cleavage was 0.281.

Which self-cleavage does the source give for A11U G27U here?
Its self-cleavage is 0.394.

For A23U A49G, which self-cleavage is on record?
The self-cleavage was 0.356.

Which self-cleavage does the source give for A24U U52A here?
Its self-cleavage is 0.925.

Which self-cleavage does the source give for G42U U55C here?
The self-cleavage was 0.155.

Which self-cleavage does the source give for G54C C65G here?
Its self-cleavage is 0.151.

With C10U U14C as the variant, how does the self-cleavage read?
The self-cleavage was 0.671.

For G19A A71C, which self-cleavage is on record?
Its self-cleavage is 1.38.

Which self-cleavage does the source give for U33C G34C here?
The self-cleavage was 1.28.

For U20G A24G, which self-cleavage is on record?
Its self-cleavage is 0.673.

For C12U U58A, which self-cleavage is on record?
The self-cleavage was 0.597.

Which self-cleavage does the source give for C46G C65G here?
The self-cleavage was 0.078.
